Experimental data taken from article PMC10897367, “Functional and structural asymmetry suggest a unifying principle for catalysis in membrane-bound pyrophosphatases” (EMBO Reports, 2024).

B1: K+-dependent Na+-pumping membrane-bound pyrophosphatase from Thermotoga maritima (TmPPase), wild type (enzyme, UniProt Q9S5X0 1-726, looked up)
chain: MYVAALFFLIPLVALGFAAANFAAVVRKPEGTERMKEISSYIRSGADSFLAHETKAIFKVAIVIAILLMIFTTWQTGVAFLLGAVMSASAGIVGMKMATRANVRVAEAARTTKKIGPALKVAYQGGSVMGLSVGGFALLGLVLVYLIFGKWMGQVDNLNIYTNWLGINFVPFAMTVSGYALGCSIIAMFDRVGGGVYTKAADMAADLVGKTELNLPEDDPRNPATIADNVGDNVGDVAGLGADLLESFVGAIVSSIILASYMFPIYVQKIGENLVHQVPKETIQALISYPIFFALVGLGCSMLGILYVIVKKPSDNPQRELNISLWTSALLTVVLTAFLTYFYLKDLQGLDVVGFRFGAISPWFSAIIGIFSGILIGFWAEYYTSYRYKPTQFLSKSSIEGTGMVISNGLSLGMKSVFPPTLTLVLGILFADYFAGLYGVAIAALGMLSFVATSVSVDSYGPIADNAGGISEMCELDPEVRKITDHLDAVGNTTAAIGKGFAIGSAIFAALSLFASYMFSQISPSDIGKPPSLVLLLNMLDARVIAGALLGAAITYYFSGYLISAVTKAAMKMVDEIRRQAREIPGLLEGKAKPDYNRCIEITSDNALKQMGYPAFIAILTPLVTGFLLGAEFVGGVLIGTVLSGAMLAILTANSGGAWDNAKKYLEAGNLEGYGKGSEPHKALVIGDTVGDPLKDTVGPSLDILIKIMSVVSVIAVSIFKHVHLF
notes: No tag cleavage is mentioned; also called K+-dependent Na+-PPase; Na+-PPase; source: S. cerevisiae BJ1991, purified (hot-solve solubilisation, nickel-NTA; OGNG)
B2: K+-independent H+-pumping membrane-bound pyrophosphatase from Pyrobaculum aerophilum (PaPPase), wild type (enzyme, UniProt Q8ZWI8 1-721, looked up)
chain: MNMISYALLGVILGISGVIYAVYLAVWVLRQDPGNEKMRFISQAIATGARAYLFRQYRTLAVLLVILAVLILVAIDMPRRTFGLTALAFIVGALGSMLAGYLGMYVTTRSASRVAQAAATGGMGKALLVSWRAGAVMGLSLASIALLLISGFYLVFRSVLPDDWAVPLVALGFGASLVTLFMRVGGGIYTKAADLGADLVGKVEAGIPEDDPRNPGVIADNVGDNVGDVAGMAADVYESYIVTVTAAIFLAAILGLPTQFIEAIILFAALALVATFAGVNLLKTTGVKHPLSSISLAIYATIGLSVVLFFIGAFTLGLDSTKALALAATTSLGAVIAPLIVKITDYYTSYNYGPVRKIAEQAKISPATVIITGYGVGLMSAIPVIAVIVAVLGISYMIGYYTVPVSGFGELSKYLAGIFGTAMASVGLLVVAGIIITADSYGPVSDNAGGVVEMAGLPDEVREITDVLDSVGNTTKATTKGYAIASAALAALVLFIALIFEIVYSASKILGKGIVDMISESLSGLQLINANVLIGAFLGVALVYFFSSRTLEAVGRTAMEIVEEIRRQFREKPGILEWKEQPDYARVVDIATRRALGEFLIPGLAAIVLPLITGLLLGWNALAGLIMGAIVAGVPRALLMANAGGAWDNAKKYIEIQGLKKTEMHKAAVIGDTVGDPMKDTVGPSLNPLIKVLNTLSVVFTYVIVSTNIALGIWPSGLLPF
notes: No tag cleavage is mentioned; also called PaPPase:Mg5IDP; K+-independent H+-PPase; source: S. cerevisiae BJ1991, purified (hot-solve solubilisation, nickel-NTA; DM for crystals)

Experiments:
[1] = biological target: the molecule itself; assay: crystal structure; time-resolved cryo-trapping: TmPPase in OGNG crystallised with K4PPi and without Na+, soaked in a Na+ trigger solution for 0-3600 s, flash cooled; molecular replacement with 4AV3
[2] = biological target: the molecule itself; assay: crystal structure; PaPPase in DM with 2 mM IDP, vapour diffusion, 30-33% PEG 400, 0.1 M MES pH 6.5, 0.05 M LiSO4, 0.05 M NaCl, 20 °C; eight datasets combined, molecular replacement with a 5LZQ-based model

Protein	binding result [1]	binding result [2]
B1	binds	–
B2	–	binds
